Each block holds one molecule with its values, some of them ahead of it.
How the values were obtained:
BRD4-NUT foci = target: T1, BRD4-NUT foci (Homo sapiens, UniProt O60885+Q86Y26); assay: immunofluorescence co-localization in 797TRex cells; format: cell-based; conditions: HA-tagged, induced 24 h
T1 construct: composed of the N-terminal of BRD4 (amino acids 1-720 out of 1372); endogenous in cells; host or cells: 797TRex cells (tet-inducible derivative of the BRD4-NUT-positive NMC line TC-797)
Protocol: Immunofluorescence on TC-797 cells was performed as described (55) and nuclei were counterstained with ProLong® Gold antifade reagent with 4′,6-diamidino-2-phenylindole (DAPI) (Life Technologies). Primary antibodies used were anti-NUT (1:1000, rabbit monoclonal clone C52, Cell Signaling Technology), and anti-HA (1:500, mouse monoclonal, Sigma-Aldrich). Secondary antibodies included goat anti-rabbit Alexa Fluor 594 and goat anti-mouse Alexa Fluor 488 (1:1000, Life Technologies, Grand Island, N.Y.). Photos were taken on a Nikon Eclipse E600 fluorescent microscope (Melville, N.Y.) using a Spot RTSlider camera (Diagnostic Instruments, Inc., Sterling Heights, Mich.), and Spot Advanced software (Diagnostic Instruments, Inc.).

BRD4 = target: T2, BRD4 (Homo sapiens, UniProt O60885); assay: anti-HA co-immunoprecipitation in C33A-6TR cells; format: binding; conditions: HA-tagged construct, C33A cervical carcinoma cells
T2 construct: endogenous in cells; host or cells: C33A-6TR (tet-repressor-positive C33A cervical carcinoma cells)
Protocol: For co-immunoprecipitation experiments of HA-tagged proteins, C33A-6TR cells stably expressing HA-tagged constructs under a Tet-inducible promoter were used. Protein extracts were prepared 24 h after transfection or induction with Doxycycline (1 μg/ml). Cells were lysed in lysis buffer (50 mM Tris-HCl [pH 7.5], 150 mM NaCl, 0.5% Nonidet P-40) with freshly added protease inhibitors (Roche Complete, EDTA free protease inhibitor cocktail, Roche, Indianapolis, Ind.). Extracts were adjusted for protein concentration and 10% of extracts were used as Input Immunoprecipitations were performed using 15 μl of HA-resin (Sigma A2095). Extracts were incubated overnight at 4° C., and precipitated proteins were detected by Western blot analysis.

797TRex cells [1] = assay: differentiation of 797TRex cells on induced expression of construct (involucrin immunoblot, H&E, IHC); format: cell-based, human; conditions: induced expression for 120 h
Text: BRD4 ET domain containing fragment (BRD4 444-722) was cloned into pcDNA5 FRT/TO-FLAG (Invitrogen) with an N-terminal SV40 NLS sequence to generate pcDNA5 FRT/TO-Flag-NLS-BRD4-ET (p6894). MSCV-CMV-Flag-HA-NSD3 (p6351) has been described previously (8). To make tetracycline-inducible N- and C-terminal BioTAP-tagged constructs, the inventors transferred the gateway destination cassette from pHAGE-TRE (gift of Steven Elledge) to the pcDNA5 frt/to mammalian expression vector with N-terminal BioTAP tandem tag to make pcDNA5 frt/to-DEST-NBioTAP. NSD3-NUT was constructed by fusion PCR into pDONR223, then transferred into the pcDNA5 frt/to-DEST-NBioTAP vector by gateway cloning. Full length NSD3, NSD3Tr encoding amino acids 1-569 of NSD3, full length NUT, BRD4-NUT (derived from pcDNA5 frt/to FLAG-BRD4-NUT (17)) were PCR-cloned into pDONR223, then transferred by gateway cloning into the pHAGE-P CMVt N-HA GAW expression vector derived from the PHAGE lentiviral vector (52).
NMC cell lines, TC-797 (15) 10-15 (6), 8645(17), 293T, U205, and C33A cells were maintained as monolayer cultures in Dulbecco Modified Eagle medium (DMEM) (Invitrogen) supplemented with 10% (v/v) Fetal Bovine Serum (FBS, SH3008803, Hyclone) and 1% pen-strep (GIBCO/Invitrogen). […]

797TRex cells [2] = assay: luminescent cell viability assay (CellTiter-Glo), 797TRex; format: cell-based, human; conditions: induced ET domain expression for 120 h
Protocol: (§1) Cells were plated at a density of 3000 per well in a 96-well plate, and CellTiter-Glo (Promega, Madison, Wis.) was used to determine cell viability as a measure of ATP content according to the manufacturer's instructions.

U2OS cells = assay: luminescent cell viability assay (CellTiter-Glo), U2OS; format: cell-based; conditions: induced ET domain expression for 120 h
Protocol: as §1

293T cells = assay: luminescent cell viability assay (CellTiter-Glo), 293T; format: cell-based; conditions: induced ET domain expression for 120 h
Protocol: as §1

- co-localization with BRD4-NUT foci (BRD4-NUT foci): co-localized with BRD4-NUT foci
- co-immunoprecipitation of BRD4 (BRD4): co-immunoprecipitated BRD4
B1: NSD3Tr: portion of NSD3 present in NSD3-NUT, amino acids 1-569 of NSD3, HA- or BioTAP-tagged, inducibly expressed (protein)
chain: MDFSFSFMQGIMGNTIQQPPQLIDSANIRQEDAFDNNSDIAEDGGQTPYEATLQQGFQYPATTEDLPPLTNGYPSSISVYETQTKYQSYNQYPNGSANGFGAVRNFSPTDYYHSEIPNTRPHEILEKPSPPQPPPPPSVPQTVIPKKTGSPEIKLKITKTIQNGRELFESSLCGDLLNEVQASEHTKSKHESRKEKRKKSNKHDSSRSEERKSHKIPKLEPEEQNRPNERVDTVSEKPREEPVLKEEAPVQPILSSVPTTEVSTGVKFQVGDLVWSKVGTYPWWPCMVSSDPQLEVHTKINTRGAREYHVQFFSNQPERAWVHEKRVREYKGHKQYEELLAEATKQASNHSEKQKIRKPRPQRERAQWDIGIAHAEKALKMTREERIEQYTFIYIDKQPEEALSQAKKSVASKTEVKKTRRPRSVLNTQPEQTNAGEVASSLSSTEIRRHSQRRHTSAEEEEPPPVKIAWKTAAARKSLPASITMHKGSLDLQKCNMSPVVKIEQVFALQNATGDGKFIDQFVYSTKGIGNKTEISVRGQDRLIISTPNQRNEKPTQSVSSPEATSGST
modifications: left off: large carriers; small tags and cut ends
notes: portion of NSD3 present in NSD3-NUT, amino acids 1-569 of NSD3, HA- or BioTAP-tagged, inducibly expressed
- differentiation (morphology, involucrin) (797TRex cells [1]): found to induce differentiation

B2: ET domain: BRD4 ET domain containing fragment (BRD4 444-722) with N-terminal SV40 NLS, FLAG-tagged, tet-inducibly expressed (protein)
chain: KLQDVFEMRFAKMPDEPEEPVVAVSSPAVPPPTKVVAPPSSSDSSSDSSSDSDSSTDDSEEERAQRLAELQEQLKAVHEQLAALSQPQQNKPKKKEKDKKEKKKEKHKRKEEVEENKKSKAKEPPPKKTKKNNSSNSNVSRKEPAPMKSKPPPTYESEEEDKCKPMSYEEKRQLSLDINLPGEKLGRVVHIIQSREPSLKNSNPDEIEIDFETLKPSTLRELERYVTSCLRKKRKPQAEICVDVIAGSSKMKGFSSSESESSSESSSSDSEDSETEMAP
modifications: left off: small tags and cut ends
notes: BRD4 ET domain containing fragment (BRD4 444-722) with N-terminal SV40 NLS, FLAG-tagged, tet-inducibly expressed
- proliferation rate (cell viability, CellTiter-Glo) (797TRex cells [2]): negatively affected the proliferation rate
- growth (cell viability, CellTiter-Glo) (U2OS cells): unaffected
- growth (cell viability, CellTiter-Glo) (293T cells): unaffected
- differentiation (morphology, involucrin) (797TRex cells [1]): inducing differentiation morphologically and immunophenotypically
